Measurements from patent publication US20180031579A1.

Target: Growth differentiation factor 11 (GDF11) (human) (UniProt O95390)
Experiment: cell-based or functional assay

Chain of UniProt O95390 (O95390 299-407 limits assumed): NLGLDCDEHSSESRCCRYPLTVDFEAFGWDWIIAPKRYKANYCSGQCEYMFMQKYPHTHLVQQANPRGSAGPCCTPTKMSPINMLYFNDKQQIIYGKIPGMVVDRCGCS

apoptosis in primary AML blasts, subjects 5 and 6: 50 % apoptosis
Substance: anti-human GDF11 antibody ab71347 (Abcam)
